# T1: DLG3_3, Q92796
# T1 sequence (Q92796 374-475, limits assumed, looked up): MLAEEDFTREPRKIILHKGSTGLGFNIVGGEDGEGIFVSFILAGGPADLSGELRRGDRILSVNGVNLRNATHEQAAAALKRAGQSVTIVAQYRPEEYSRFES
# T2: GRIP1_7, Q9Y3R0
# T2 sequence (Q9Y3R0 999-1096, limits assumed, looked up): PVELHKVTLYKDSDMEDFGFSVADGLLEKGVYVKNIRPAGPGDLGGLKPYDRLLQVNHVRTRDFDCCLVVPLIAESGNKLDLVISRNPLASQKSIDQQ
# T3: PDZD2_2, O15018
# T3 sequence (O15018 329-429, limits assumed, looked up): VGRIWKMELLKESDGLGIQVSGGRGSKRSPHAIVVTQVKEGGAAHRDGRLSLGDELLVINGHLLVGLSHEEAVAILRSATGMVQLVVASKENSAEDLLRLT
# T4: NHERF3_4, Q5T2W1
# T4 sequence (Q5T2W1 373-468, limits assumed, looked up): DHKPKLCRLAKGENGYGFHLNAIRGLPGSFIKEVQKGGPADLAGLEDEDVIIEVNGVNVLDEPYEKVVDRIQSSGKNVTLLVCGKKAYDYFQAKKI
# T5: GRIP1_4, Q9Y3R0
# T5 sequence (Q9Y3R0 467-571, limits assumed, looked up): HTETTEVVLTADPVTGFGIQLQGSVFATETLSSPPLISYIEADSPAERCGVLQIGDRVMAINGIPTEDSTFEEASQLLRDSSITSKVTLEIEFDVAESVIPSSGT
# T6: MPP2, Q14168
# T6 sequence (Q14168 180-250, limits assumed, looked up): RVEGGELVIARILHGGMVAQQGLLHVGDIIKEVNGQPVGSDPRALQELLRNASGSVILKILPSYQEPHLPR
# T7: MPDZ_12, O75970
# T7 sequence (O75970 1857-1958, limits assumed, looked up): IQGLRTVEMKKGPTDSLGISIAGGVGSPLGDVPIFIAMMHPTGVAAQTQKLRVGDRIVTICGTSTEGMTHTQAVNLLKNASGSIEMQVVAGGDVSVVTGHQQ
# T8: LIN7B, Q9HAP6
# T8 sequence (Q9HAP6 88-185, limits assumed, looked up): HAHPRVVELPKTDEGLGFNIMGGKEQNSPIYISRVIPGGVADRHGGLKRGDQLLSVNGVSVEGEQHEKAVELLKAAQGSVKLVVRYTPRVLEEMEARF
# T9: SNTG2, Q9NY99
# T9 sequence (Q9NY99 68-166, limits assumed, looked up): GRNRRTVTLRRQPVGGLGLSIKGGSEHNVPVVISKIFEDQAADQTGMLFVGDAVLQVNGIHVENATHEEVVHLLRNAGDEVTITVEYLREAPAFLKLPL
# T10: APBA1_2, Q02410
# T10 sequence (Q02410 742-832, limits assumed, looked up): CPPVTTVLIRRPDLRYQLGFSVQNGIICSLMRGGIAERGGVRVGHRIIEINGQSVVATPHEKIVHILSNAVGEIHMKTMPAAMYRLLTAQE
# T11: PTPN13_1, Q12923
# T11 sequence (Q12923 1088-1188, limits assumed, looked up): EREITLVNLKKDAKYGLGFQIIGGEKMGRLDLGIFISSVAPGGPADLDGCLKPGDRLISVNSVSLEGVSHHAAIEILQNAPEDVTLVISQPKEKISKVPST
# How the values were obtained:
# Assay in all cases: holdup assay
# Design in all cases: key: below the threshold = too weak to quantify, mostly under pKd 3.1 to 4
# FRMPD2_2, Q68DX3 = target: FRMPD2_2, Q68DX3
# SCRIB_3, Q14160 = target: SCRIB_3, Q14160
# DLG3_3, Q92796 = target: T1, DLG3_3, Q92796
# GRIP1_7, Q9Y3R0 = target: T2, GRIP1_7, Q9Y3R0
# FRMPD4, Q14CM0 = target: FRMPD4, Q14CM0
# PDZD2_2, O15018 = target: T3, PDZD2_2, O15018
# NHERF4_2, Q86UT5 = target: NHERF4_2, Q86UT5
# NHERF3_4, Q5T2W1 = target: T4, NHERF3_4, Q5T2W1
# PARD3_3, Q8TEW0 = target: PARD3_3, Q8TEW0
# GRIP1_4, Q9Y3R0 = target: T5, GRIP1_4, Q9Y3R0
# MAGI2_4, Q86UL8 = target: MAGI2_4, Q86UL8
# MPP2, Q14168 = target: T6, MPP2, Q14168
# GRIP2_7, Q9C0E4 = target: GRIP2_7, Q9C0E4
# AHNAK1, Q09666 = target: AHNAK1, Q09666
# MPDZ_12, O75970 = target: T7, MPDZ_12, O75970
# DLG1_2, Q12959 = target: DLG1_2, Q12959
# MAGI2_6, Q86UL8 = target: MAGI2_6, Q86UL8
# LIN7B, Q9HAP6 = target: T8, LIN7B, Q9HAP6
# SNTG2, Q9NY99 = target: T9, SNTG2, Q9NY99
# APBA1_2, Q02410 = target: T10, APBA1_2, Q02410
# DLG4_2, P78352 = target: DLG4_2, P78352
# GRID2IP_2, A4D2P6 = target: GRID2IP_2, A4D2P6
# NOS1, P29475 = target: NOS1, P29475
# PTPN13_1, Q12923 = target: T11, PTPN13_1, Q12923
# LIMK2, P53671 = target: LIMK2, P53671
# FRMPD2_1, Q68DX3 = target: FRMPD2_1, Q68DX3
# LNX1_3, Q8TBB1 = target: LNX1_3, Q8TBB1
# [1] = plain residues with an end cap or a label only (N-terminal biotin on a linker: ttds)
# [2] = plain residues with an end cap or a label only (N-terminal biotin on a linker: ado-ado)
# [3] = plain residues with an end cap or a label only (N-terminal biotin on a linker: ahx)
# Sequence of FRMPD2_2, Q68DX3 (Q68DX3 944-1038): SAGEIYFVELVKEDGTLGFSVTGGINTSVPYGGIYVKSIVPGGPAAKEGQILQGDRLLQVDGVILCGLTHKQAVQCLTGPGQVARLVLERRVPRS
# Sequence of FRMPD4, Q14CM0 (Q14CM0 67-160): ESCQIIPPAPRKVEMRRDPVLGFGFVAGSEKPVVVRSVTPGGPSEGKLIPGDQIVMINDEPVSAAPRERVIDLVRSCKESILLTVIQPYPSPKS
# Sequence of FRMPD2_1, Q68DX3 (Q68DX3 770-861): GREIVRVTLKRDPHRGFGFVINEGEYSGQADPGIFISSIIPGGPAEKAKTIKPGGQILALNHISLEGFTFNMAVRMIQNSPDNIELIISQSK
# Sequence of MAGI2_4, Q86UL8 (Q86UL8 772-865): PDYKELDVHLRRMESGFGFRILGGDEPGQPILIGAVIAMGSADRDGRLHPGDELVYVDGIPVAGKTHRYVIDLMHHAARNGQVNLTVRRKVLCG
# Sequence of GRIP2_7, Q9C0E4 (Q9C0E4 934-1023): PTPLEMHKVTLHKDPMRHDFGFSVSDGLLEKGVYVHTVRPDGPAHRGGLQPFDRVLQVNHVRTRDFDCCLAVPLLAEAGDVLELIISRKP
# Sequence of SCRIB_3, Q14160 (Q14160 999-1103): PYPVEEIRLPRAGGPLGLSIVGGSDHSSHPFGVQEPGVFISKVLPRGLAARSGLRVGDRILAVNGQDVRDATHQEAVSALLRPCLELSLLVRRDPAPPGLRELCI
# Sequence of AHNAK1, Q09666 (Q09666 4-100): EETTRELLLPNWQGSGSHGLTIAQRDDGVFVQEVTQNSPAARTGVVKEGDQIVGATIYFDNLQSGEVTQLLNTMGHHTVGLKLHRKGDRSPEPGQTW
# Sequence of PARD3_3, Q8TEW0 (Q8TEW0 582-685): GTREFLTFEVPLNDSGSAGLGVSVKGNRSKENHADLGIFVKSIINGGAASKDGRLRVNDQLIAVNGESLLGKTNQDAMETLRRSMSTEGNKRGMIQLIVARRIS
# Sequence of LIMK2, P53671 (P53671 143-248): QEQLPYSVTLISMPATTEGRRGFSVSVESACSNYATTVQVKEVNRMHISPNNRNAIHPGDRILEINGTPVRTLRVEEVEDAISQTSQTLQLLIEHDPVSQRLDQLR
# Sequence of DLG1_2, Q12959 (Q12959 314-412): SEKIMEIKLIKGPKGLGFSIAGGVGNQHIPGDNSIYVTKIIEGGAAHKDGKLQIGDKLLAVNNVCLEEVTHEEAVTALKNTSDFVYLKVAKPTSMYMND
# Sequence of LNX1_3, Q8TBB1 (Q8TBB1 500-596): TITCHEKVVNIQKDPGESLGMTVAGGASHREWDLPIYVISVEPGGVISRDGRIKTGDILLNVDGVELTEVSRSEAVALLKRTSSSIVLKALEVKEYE
# Sequence of NHERF4_2, Q86UT5 (Q86UT5 220-308): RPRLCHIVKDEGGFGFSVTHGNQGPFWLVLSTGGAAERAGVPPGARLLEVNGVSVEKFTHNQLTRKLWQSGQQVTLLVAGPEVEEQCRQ
# Sequence of MAGI2_6, Q86UL8 (Q86UL8 1141-1229): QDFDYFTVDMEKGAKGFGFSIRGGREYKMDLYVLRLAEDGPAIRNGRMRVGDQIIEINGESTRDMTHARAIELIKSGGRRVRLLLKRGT
# Sequence of DLG4_2, P78352 (P78352 155-259): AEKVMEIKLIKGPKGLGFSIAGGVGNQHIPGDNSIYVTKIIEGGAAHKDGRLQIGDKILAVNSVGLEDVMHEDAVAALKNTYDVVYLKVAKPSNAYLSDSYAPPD
# Sequence of NOS1, P29475 (P29475 9-101): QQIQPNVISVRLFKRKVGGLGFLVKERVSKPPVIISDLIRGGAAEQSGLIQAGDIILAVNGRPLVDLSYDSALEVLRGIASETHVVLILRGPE
# Sequence of GRID2IP_2, A4D2P6 (A4D2P6 272-370): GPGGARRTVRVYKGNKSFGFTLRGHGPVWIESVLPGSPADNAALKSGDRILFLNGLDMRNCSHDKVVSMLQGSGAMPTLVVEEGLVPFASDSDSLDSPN
binder,measurement,setting,value
"GGPKEEESPV [SLC16A1, P53985]",pKd,"FRMPD2_2, Q68DX3; [1]",4.01
same,pKd,"SCRIB_3, Q14160; [1]",below the threshold
same,pKd,"DLG3_3, Q92796; [1]",below the threshold
same,pKd,"GRIP1_7, Q9Y3R0; [1]",below the threshold
same,pKd,"FRMPD4, Q14CM0; [1]",below the threshold
same,pKd,"PDZD2_2, O15018; [1]",4.75
same,pKd,"NHERF4_2, Q86UT5; [1]",below the threshold
same,pKd,"NHERF3_4, Q5T2W1; [1]",below the threshold
same,pKd,"PARD3_3, Q8TEW0; [1]",below the threshold
same,pKd,"GRIP1_4, Q9Y3R0; [1]",below the threshold
same,pKd,"MAGI2_4, Q86UL8; [1]",below the threshold
same,pKd,"MPP2, Q14168; [1]",below the threshold
same,pKd,"GRIP2_7, Q9C0E4; [1]",below the threshold
same,pKd,"AHNAK1, Q09666; [1]",below the threshold
same,pKd,"MPDZ_12, O75970; [1]",below the threshold
same,pKd,"DLG1_2, Q12959; [1]",3.56
same,pKd,"MAGI2_6, Q86UL8; [1]",below the threshold
same,pKd,"LIN7B, Q9HAP6; [1]",below the threshold
same,pKd,"SNTG2, Q9NY99; [1]",below the threshold
same,pKd,"APBA1_2, Q02410; [1]",below the threshold
same,pKd,"DLG4_2, P78352; [1]",3.5
same,pKd,"GRID2IP_2, A4D2P6; [1]",below the threshold
same,pKd,"NOS1, P29475; [1]",3.64
same,pKd,"PTPN13_1, Q12923; [1]",below the threshold
same,pKd,"LIMK2, P53671; [1]",below the threshold
same,pKd,"FRMPD2_1, Q68DX3; [1]",below the threshold
same,pKd,"LNX1_3, Q8TBB1; [1]",below the threshold
"EEPEERHTEL [CES2, O00748]",pKd,"FRMPD2_2, Q68DX3; [2]",below the threshold
same,pKd,"SCRIB_3, Q14160; [2]",4.89
same,pKd,"DLG3_3, Q92796; [2]",below the threshold
same,pKd,"GRIP1_7, Q9Y3R0; [2]",below the threshold
same,pKd,"FRMPD4, Q14CM0; [2]",4.04
same,pKd,"PDZD2_2, O15018; [2]",5.04
same,pKd,"NHERF4_2, Q86UT5; [2]",below the threshold
same,pKd,"NHERF3_4, Q5T2W1; [2]",4.48
same,pKd,"PARD3_3, Q8TEW0; [2]",3.61
same,pKd,"GRIP1_4, Q9Y3R0; [2]",below the threshold
same,pKd,"MAGI2_4, Q86UL8; [2]",below the threshold
same,pKd,"MPP2, Q14168; [2]",below the threshold
same,pKd,"GRIP2_7, Q9C0E4; [2]",below the threshold
same,pKd,"AHNAK1, Q09666; [2]",below the threshold
same,pKd,"MPDZ_12, O75970; [2]",below the threshold
same,pKd,"DLG1_2, Q12959; [2]",4.13
same,pKd,"MAGI2_6, Q86UL8; [2]",4.27
same,pKd,"LIN7B, Q9HAP6; [2]",3.89
same,pKd,"SNTG2, Q9NY99; [2]",below the threshold
same,pKd,"APBA1_2, Q02410; [2]",3.5
same,pKd,"DLG4_2, P78352; [2]",4
same,pKd,"GRID2IP_2, A4D2P6; [2]",4.46
same,pKd,"NOS1, P29475; [2]",3.56
same,pKd,"PTPN13_1, Q12923; [2]",below the threshold
same,pKd,"LIMK2, P53671; [2]",below the threshold
same,pKd,"FRMPD2_1, Q68DX3; [2]",below the threshold
same,pKd,"LNX1_3, Q8TBB1; [2]",below the threshold
"QGRWDHETIV [TMEM215, Q68D42]",pKd,"FRMPD2_2, Q68DX3; [3]",4.4
same,pKd,"SCRIB_3, Q14160; [3]",4.06
same,pKd,"DLG3_3, Q92796; [3]",3.87
same,pKd,"GRIP1_7, Q9Y3R0; [3]",3.51
same,pKd,"FRMPD4, Q14CM0; [3]",3.6
same,pKd,"PDZD2_2, O15018; [3]",4.69
same,pKd,"NHERF4_2, Q86UT5; [3]",below the threshold
same,pKd,"NHERF3_4, Q5T2W1; [3]",3.52
same,pKd,"PARD3_3, Q8TEW0; [3]",4.47
same,pKd,"GRIP1_4, Q9Y3R0; [3]",below the threshold
same,pKd,"MAGI2_4, Q86UL8; [3]",4
same,pKd,"MPP2, Q14168; [3]",below the threshold
same,pKd,"GRIP2_7, Q9C0E4; [3]",below the threshold
same,pKd,"AHNAK1, Q09666; [3]",3.64
same,pKd,"MPDZ_12, O75970; [3]",below the threshold
same,pKd,"DLG1_2, Q12959; [3]",4.81
same,pKd,"MAGI2_6, Q86UL8; [3]",4.07
same,pKd,"LIN7B, Q9HAP6; [3]",below the threshold
same,pKd,"SNTG2, Q9NY99; [3]",4.58
same,pKd,"APBA1_2, Q02410; [3]",3.9
same,pKd,"DLG4_2, P78352; [3]",4.66
same,pKd,"GRID2IP_2, A4D2P6; [3]",below the threshold
same,pKd,"NOS1, P29475; [3]",4.04
same,pKd,"PTPN13_1, Q12923; [3]",below the threshold
same,pKd,"LIMK2, P53671; [3]",below the threshold
same,pKd,"FRMPD2_1, Q68DX3; [3]",below the threshold
same,pKd,"LNX1_3, Q8TBB1; [3]",below the threshold
"RTRQRNETQV [HPV51-E6, P26554]",pKd,"FRMPD2_2, Q68DX3; [1]",3.41
same,pKd,"SCRIB_3, Q14160; [1]",4.17
same,pKd,"DLG3_3, Q92796; [1]",4.91
same,pKd,"GRIP1_7, Q9Y3R0; [1]",below the threshold
same,pKd,"FRMPD4, Q14CM0; [1]",below the threshold
same,pKd,"PDZD2_2, O15018; [1]",3.58
same,pKd,"NHERF4_2, Q86UT5; [1]",below the threshold
same,pKd,"NHERF3_4, Q5T2W1; [1]",below the threshold
same,pKd,"PARD3_3, Q8TEW0; [1]",below the threshold
same,pKd,"GRIP1_4, Q9Y3R0; [1]",below the threshold
same,pKd,"MAGI2_4, Q86UL8; [1]",4.4
same,pKd,"MPP2, Q14168; [1]",below the threshold
same,pKd,"GRIP2_7, Q9C0E4; [1]",3.48
same,pKd,"AHNAK1, Q09666; [1]",below the threshold
same,pKd,"MPDZ_12, O75970; [1]",below the threshold
same,pKd,"DLG1_2, Q12959; [1]",5.13
same,pKd,"MAGI2_6, Q86UL8; [1]",below the threshold
same,pKd,"LIN7B, Q9HAP6; [1]",below the threshold
same,pKd,"SNTG2, Q9NY99; [1]",4.22
same,pKd,"APBA1_2, Q02410; [1]",3.56
same,pKd,"DLG4_2, P78352; [1]",4.99
same,pKd,"GRID2IP_2, A4D2P6; [1]",below the threshold
same,pKd,"NOS1, P29475; [1]",3.91
same,pKd,"PTPN13_1, Q12923; [1]",below the threshold
same,pKd,"LIMK2, P53671; [1]",below the threshold
same,pKd,"FRMPD2_1, Q68DX3; [1]",below the threshold
same,pKd,"LNX1_3, Q8TBB1; [1]",below the threshold

# Reference: article PMC9482650, “Quantitative fragmentomics allow affinity mapping of interactomes” (Nature Communications, 2022)
